Experimental data taken from patent US20210054355A1 (NEW YORK UNIVERSITY, published 2021).

Tests used:
[1] = target: T1, FGFR1c^ecto/ΔSLBS′ (FGFR1c^ecto carrying V221D) (human, UniProt P11362 142-365); test: SEC-MALS, 1:1:1 ternary complex with FGF23 and αKlotho^ecto
T1 construct: also called FGFR1c^ΔSLBS′
T1 sequence: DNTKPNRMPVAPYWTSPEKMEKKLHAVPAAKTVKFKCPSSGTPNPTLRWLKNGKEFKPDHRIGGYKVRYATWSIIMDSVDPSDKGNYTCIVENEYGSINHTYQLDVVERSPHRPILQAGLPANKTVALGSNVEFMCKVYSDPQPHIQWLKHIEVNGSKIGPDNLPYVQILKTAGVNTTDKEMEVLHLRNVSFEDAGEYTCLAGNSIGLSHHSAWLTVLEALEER
Experimental: (§1) A Superdex 200 10/300 GL column (GE Healthcare, USA) was placed in-line between the HPLC pump (Waters 1525) and the HPLC UV (Waters 2998 Photodiode Array), laser light scattering, and refractive index detectors. Light scattering and refractive index detectors were calibrated following the manufacturer's guidelines. The refractive index increment (dn/dc) in which n is the refractive index and c is the concentration of the mixture of DDM and CHS in 20 mM Tris-HCl pH 8.0 buffer containing 300 mM NaCl, was determined offline using an Optilab T-rEX refractive index detector. Monomeric bovine serum albumin (#23210, Thermo Scientific, USA) was used as part of routine data quality control.
(§2) 60 ml or more of 25 mM HEPES pH 7.5 buffer containing 150 mM NaCl were passed through the system at a flow rate of 0.5 mL/min to equilibrate the Superdex 200 10/300 GL column and establish stable baselines for light scattering and refractive index detectors. Purified αKlotho^ecto, FGER1c^ecto (wild type or mutant), and FGF23 (wild type or mutant) proteins were mixed at a molar ratio of 1:1:1 and concentrated to 12.5 μM. 50 μl of protein samples with a molar equivalent of a heparin hexasaccharide (#H006, Iduron, Manchester, U.K.) were injected onto the gel filtration column, and the column eluent was continuously monitored for 280 nm absorbance, laser light scattering, and refractive index. In a separate set of experiments, 50 μl of 1:1:1 FGF23-FGFR1c^ecto-αKlotho^ecto ternary complex at 12.5 μM concentration was mixed with heparin hexasaccharide at molar ratios of 1:0.25, 1:0.5, 1:1, or 1:2, and the mixtures were injected onto the gel filtration column. 50 μl of ternary complex without added heparin hexasaccharide were run as a control. In yet another set of experiments, αKlotho^ecto (wild type or mutant) and FGER1c^ecto were mixed at a molar ratio of 1:1, and 50 μl of concentrated protein mixtures were injected onto the gel filtration column. 50 μl of concentrated αKlotho^ecto (wild type or mutant) alone were run as a control in these experiments. […]

[2] = target: T2, FGFR1c^ecto/ΔSLBS (FGFR1c^ecto carrying I203E) (human, UniProt P11362 142-365); test: as above
T2 construct: also called FGFR1c^ΔSLBS
T2 sequence: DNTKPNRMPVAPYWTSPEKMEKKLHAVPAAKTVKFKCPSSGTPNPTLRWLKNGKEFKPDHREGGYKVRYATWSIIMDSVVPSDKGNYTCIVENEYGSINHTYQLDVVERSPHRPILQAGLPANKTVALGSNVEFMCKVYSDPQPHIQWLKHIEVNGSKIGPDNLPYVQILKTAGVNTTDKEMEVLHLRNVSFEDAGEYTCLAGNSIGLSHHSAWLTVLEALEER
Experimental: as §1, §2

[3] = target: T3, FGFR1c^ecto/ΔRRBS (FGFR1c^ecto carrying A171D) (human, UniProt P11362 142-365); test: as above
T3 construct: also called FGFR1^ΔRRBS
T3 sequence: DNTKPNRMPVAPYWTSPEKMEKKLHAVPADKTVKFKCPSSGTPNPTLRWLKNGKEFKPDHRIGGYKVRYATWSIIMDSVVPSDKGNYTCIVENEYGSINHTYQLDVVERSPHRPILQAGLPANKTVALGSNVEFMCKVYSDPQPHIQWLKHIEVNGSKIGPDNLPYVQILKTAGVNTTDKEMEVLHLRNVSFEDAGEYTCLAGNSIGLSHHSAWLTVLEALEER
Experimental: as §1, §2

[4] = target: T4, αKlotho^ecto/ΔRBA (soluble αKlotho ectodomain lacking L544 to T565 of the KL2 β1α1 loop) (human, UniProt Q9UEF7 34-981); test: size-exclusion chromatography of FGF23/αKlotho^ecto/ΔRBA mixture
T4 construct: the mature protein is E34 to S959; Expressed and purified like the wild type (pEF1α/myc-His A); also called α-Klotho^ecto/deltaRBA; αKlotho^ecto/ΔRBA mutant
T4 sequence: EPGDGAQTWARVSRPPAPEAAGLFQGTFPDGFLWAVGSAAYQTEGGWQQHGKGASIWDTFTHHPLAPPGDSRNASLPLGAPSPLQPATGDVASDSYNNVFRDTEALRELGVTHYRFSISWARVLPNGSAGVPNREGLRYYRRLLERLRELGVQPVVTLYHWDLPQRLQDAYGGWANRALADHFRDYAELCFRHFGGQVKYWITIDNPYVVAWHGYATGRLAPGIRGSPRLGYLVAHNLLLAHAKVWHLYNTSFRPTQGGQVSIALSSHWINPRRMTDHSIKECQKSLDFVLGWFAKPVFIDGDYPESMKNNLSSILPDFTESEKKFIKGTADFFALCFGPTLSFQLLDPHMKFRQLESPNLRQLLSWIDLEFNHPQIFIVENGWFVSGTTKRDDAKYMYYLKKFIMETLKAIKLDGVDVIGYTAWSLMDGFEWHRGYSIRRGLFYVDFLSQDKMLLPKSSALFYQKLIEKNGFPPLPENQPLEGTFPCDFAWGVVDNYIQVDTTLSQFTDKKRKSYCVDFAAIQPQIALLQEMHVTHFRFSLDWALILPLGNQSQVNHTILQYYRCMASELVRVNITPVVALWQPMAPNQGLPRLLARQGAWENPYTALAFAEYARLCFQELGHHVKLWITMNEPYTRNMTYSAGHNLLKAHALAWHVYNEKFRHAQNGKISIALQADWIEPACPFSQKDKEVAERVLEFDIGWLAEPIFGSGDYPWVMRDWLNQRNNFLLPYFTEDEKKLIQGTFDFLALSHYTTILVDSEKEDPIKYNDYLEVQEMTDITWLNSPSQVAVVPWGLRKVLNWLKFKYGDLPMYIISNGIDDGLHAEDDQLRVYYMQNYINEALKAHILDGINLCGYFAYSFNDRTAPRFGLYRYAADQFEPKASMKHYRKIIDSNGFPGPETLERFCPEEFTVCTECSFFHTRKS

binding result [1]: binds
binding result [2]: binds
binding result [3]: binds
binding result [4]: binds
B1: FGF23^WT (human FGF23 Y25 to S205 with R176Q/R179Q, protease-resistant minimal protein) (ligand)
chain: YPNASPLLGSSWGGLIHLYTATARNSYHLQIHKNGHVDGAPHQTIYSALMIRSEDAGFVVITGVMSRRYLCMDFRGNIFGSHYFDPENCRFQHQTLENGYDVYHSPQYHFLVSLGRAKRAFLPGMNPPPYSQFLSRRNEIPLIHFNTPIPRQHTQSAEDDSERDPLNVLKPRARMTPAPAS
notes: also called wild-type FGF23; minimal FGF23
